This note sets out measurements from PMC4797267, “The CSB chromatin remodeler and CTCF architectural protein cooperate in response to oxidative stress”.

This series concerns the target T1, MBP-CTCF (zinc fingers 1-11) (UniProt P49711 269-579).
T1 sequence: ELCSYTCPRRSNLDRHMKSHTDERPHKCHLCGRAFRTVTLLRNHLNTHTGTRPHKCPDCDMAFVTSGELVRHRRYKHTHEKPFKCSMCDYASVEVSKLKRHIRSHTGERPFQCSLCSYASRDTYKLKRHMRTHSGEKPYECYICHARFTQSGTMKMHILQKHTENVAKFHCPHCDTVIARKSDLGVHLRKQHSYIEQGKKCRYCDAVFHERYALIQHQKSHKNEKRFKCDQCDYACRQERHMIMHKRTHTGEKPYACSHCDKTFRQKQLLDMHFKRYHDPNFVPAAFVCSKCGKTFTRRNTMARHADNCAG
Put plainly: EMSA; 100 uM ZnSO4, 6 mM Mg2+; no CSB; 30 mM HEPES pH 7.9, 60 mM NaCl, 6% glycerol, 6 mM MgCl2, 100 uM ZnSO4, 0.02% NP40, 30 C 10 min; 1 nM DNA; 5% native PAGE, 0.5x TBE. Particulars: protein: recombinant; tags: MBP; label: 32P (body label, PCR with 32P-dATP); blunt. A general note: In EMSA bound probe runs differently from free probe, usually more slowly.

B1: 200 bp DNA fragment with CTCF-binding site (Fig. S4B) (dsDNA)
DNA 1: CACACCGAGTTCATCCCTTATGTGATGGACCCTCCACGAGGGGGCCCTGGAGAATCCCGGTGCCGAGGCTGCAGAATTGGTCGTAGACAGCTCTAGCACCGCTTAAACGCACGTACGCGCTGTCCCCCGCGTTTTAACCGCCAAGGGGATTACTCCCTAGTCTCCAGGCACGTGTCAGATATATACATCCTGT
DNA 2: ACAGGATGTATATATCTGACACGTGCCTGGAGACTAGGGAGTAATCCCCTTGGCGGTTAAAACGCGGGGGACAGCGCGTACGTGCGTTTAAGCGGTGCTAGAGCTGTCTACGACCAATTCTGCAGCCTCGGCACCGGGATTCTCCAGGGCCCCCTCGTGGAGGGTCCATCACATAAGGGATGAACTCGGTGTG
With B1, the binding result is on record as “binds”.
